Read-outs that look alike come from different tables or passages of the source.
T1: Recombinant cynomolgus monkey TSLP-his (cynomolgus monkey)
T1 construct: Prepared in-house; Amine-coupled to CM5 chip in SPR, coated on plates in the indirect ELISA; also called cynomolgus TSLP; cynomolgus TSLP-his protein
T1 chain: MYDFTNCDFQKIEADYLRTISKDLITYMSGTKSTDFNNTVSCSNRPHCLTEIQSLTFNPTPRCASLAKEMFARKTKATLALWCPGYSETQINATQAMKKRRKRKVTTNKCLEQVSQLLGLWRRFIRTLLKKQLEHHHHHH


Legend:
[1] = target: T1, Recombinant cynomolgus monkey TSLP-his; test: SPR, BIAcore; protocol of Example 2
[2] = target: T2, Recombinant human TSLP-his (human, UniProt Q969D9 29-159); test: SPR, BIAcore; protocol of Example 2
T2 construct: Prepared in-house; Amine-coupled to CM5 chip in SPR, loaded on APS sensors in Octet, biotin-labeled in the capture ELISA, unlabeled in the cell functional assays; also called human TSLP-his protein

[3] = target: T2, Recombinant human TSLP-his; test: capture ELISA: antibody captured on anti-IgG Fc coat, biotin-labeled human TSLP-his detected with streptavidin-HRP
[4] = target: T3, human TSLP-Fc (human, biotin-labeled); test: cell-based ligand-blocking FACS: antibody pre-mixed with human TSLP-Fc; blocked binding to BAF3-3E6 cells expressing human TSLPR and IL7R
T3 construct: Prepared in-house; also called biotin-labeled human TSLP-Fc; TSLP-Fc-biotin

[5] = target: T3, human TSLP-Fc; test: competitive ELISA: antibody pre-mixed with biotin-labeled human TSLP-Fc; blocked binding to coated human TSLPR-Fc/IL7Ra-Fc
[6] = target: T3, human TSLP-Fc; test: competitive ELISA: antibody pre-mixed with biotin-labeled human TSLP-Fc; blocked binding to coated Tezepelumab
[7] = target: T2, Recombinant human TSLP-his; test: capture ELISA: antibody captured on anti-IgG Fc coat, biotin-labeled human TSLP-his detected with streptavidin-HRP; remark: listed apart in the source
[8] = target: T3, human TSLP-Fc; test: cell-based ligand-blocking FACS: antibody pre-mixed with human TSLP-Fc; blocked binding to BAF3-3E6 cells expressing human TSLPR and IL7R; remark: listed apart in the source
[9] = target: T1, Recombinant cynomolgus monkey TSLP-his; test: indirect ELISA on coated cynomolgus TSLP-his
[10] = target: T3, human TSLP-Fc; test: competitive ELISA: antibody pre-mixed with biotin-labeled human TSLP-Fc; blocked binding to coated Tezepelumab; remark: listed apart in the source
[11] = target: T3, human TSLP-Fc; test: competitive ELISA: antibody pre-mixed with biotin-labeled human TSLP-Fc; blocked binding to coated human TSLPR-Fc/IL7Ra-Fc; remark: listed apart in the source
[12] = target: T2, Recombinant human TSLP-his; test: SPR, Biacore T200; below the instrument limit, roughly calculated from the sensorgram
[13] = target: T2, Recombinant human TSLP-his; test: SPR, Biacore T200; protocol of Example 2
[14] = target: T1, Recombinant cynomolgus monkey TSLP-his; test: indirect ELISA on coated cynomolgus TSLP-his
[15] = target: T2, Recombinant human TSLP-his; test: SPR, Biacore T200; TSLP-his amine-coupled to CM5 chip, antibody as analyte; 1:1 Langmuir fit
[16] = target: T2, Recombinant human TSLP-his; test: capture ELISA: antibody captured on anti-IgG Fc coat, biotin-labeled human TSLP-his detected with streptavidin-HRP; remark: listed apart in the source
[17] = target: T3, human TSLP-Fc; test: competitive ELISA: antibody pre-mixed with biotin-labeled human TSLP-Fc; blocked binding to coated human TSLPR-Fc/IL7Ra-Fc; remark: listed apart in the source
[18] = target: T3, human TSLP-Fc; test: cell-based ligand-blocking FACS: antibody pre-mixed with human TSLP-Fc; blocked binding to BAF3-3E6 cells expressing human TSLPR and IL7R; lower plateau at MFI about 550 (partial blocking)
[19] = target: T2, Recombinant human TSLP-his; test: capture ELISA: antibody captured on anti-IgG Fc coat, biotin-labeled human TSLP-his detected with streptavidin-HRP; remark: listed apart in the source
[20] = target: T3, human TSLP-Fc; test: competitive ELISA: antibody pre-mixed with biotin-labeled human TSLP-Fc; blocked binding to coated Tezepelumab; remark: listed apart in the source
[21] = target: T3, human TSLP-Fc; test: as above; remark: listed apart in the source
[22] = target: T3, human TSLP-Fc; test: cell-based ligand-blocking FACS: antibody pre-mixed with human TSLP-Fc; blocked binding to BAF3-3E6 cells expressing human TSLPR and IL7R; remark: listed apart in the source
[23] = target: T3, human TSLP-Fc; test: as above; remark: listed apart in the source
[24] = target: T2, Recombinant human TSLP-his; test: capture ELISA: antibody captured on anti-IgG Fc coat, biotin-labeled human TSLP-his detected with streptavidin-HRP; remark: listed apart in the source
[25] = target: T3, human TSLP-Fc; test: competitive ELISA: antibody pre-mixed with biotin-labeled human TSLP-Fc; blocked binding to coated human TSLPR-Fc/IL7Ra-Fc; remark: listed apart in the source
[26] = target: T1, Recombinant cynomolgus monkey TSLP-his; test: indirect ELISA on coated cynomolgus TSLP-his; the row head of the drawn table reads IC50 although the curve rises (EC50 values were reported)
[27] = target: T2, Recombinant human TSLP-his; test: BLI, Octet; TSLP-his loaded on APS biosensor, antibody in solution; 1:1 Langmuir fit
[28] = target: T3, human TSLP-Fc; test: cell-based ligand-blocking FACS: antibody pre-mixed with human TSLP-Fc; blocked binding to BAF3-3E6 cells expressing human TSLPR and IL7R; remark: listed apart in the source

Kd [1] [nM] | Kd [2] [nM] | EC50 [3] [nM] | IC50 [4] [nM] | IC50 [5] [nM] | IC50 [6] [nM] | EC50 [7] [nM] | IC50 [8] [nM] | EC50 [9] [nM] | IC50 [10] [nM] | IC50 [11] [nM] | koff [1] [s⁻¹] | kon [1] [M⁻¹ s⁻¹] | koff [2] [s⁻¹] | kon [2] [M⁻¹ s⁻¹] | Binder | other results
< 0.0322 | < 0.061 | 0.169 | ~1.09 | 0.123 | 0.909 | 0.102 | ~3.07 | 0.151 | 0.403 | 0.958 | < 1e-05 | 311000 | < 1e-05 | 164000 | hu1C5F12E9-V14 (IgG4) (antibody, also called huC5F12E9-V14) heavy: not shown light: DIQMTQSPSSLSASVGDRVTITCRPTENIYSYLAWYQQKPGKSPKLLIYFARTLAEGVPSRFSGSGSGTDFTLTISSLQPEDFATYYCQHHYGTPWTFGGGTKVEIKRTVAAPSVFIFPPSDEQLKSGTASVVCLLNNFYPREAKVQWKVDNALQSGNSQESVTEQDSKDSTYSLSSTLTLSKADYEKHKVYACEVTHQGLSSPVTKSFNRGEC | koff [12]: ~3.21e-06 s⁻¹; Kd [13]: < 0.0956 nM; koff [13]: < 1e-05 s⁻¹; kon [13]: 105000 M⁻¹ s⁻¹
 |  |  | ~1.14 |  | 0.806 | 0.11 |  |  |  | 0.758 |  |  |  |  | hu1C5F12E9-V14 (IgG1) (antibody, Humanized, human IgG1/kappa) heavy: not shown light: DIQMTQSPSSLSASVGDRVTITCRPTENIYSYLAWYQQKPGKSPKLLIYFARTLAEGVPSRFSGSGSGTDFTLTISSLQPEDFATYYCQHHYGTPWTFGGGTKVEIKRTVAAPSVFIFPPSDEQLKSGTASVVCLLNNFYPREAKVQWKVDNALQSGNSQESVTEQDSKDSTYSLSSTLTLSKADYEKHKVYACEVTHQGLSSPVTKSFNRGEC | 
< 0.0346 | < 0.0966 | 0.151 |  | 0.139 |  |  | 2.41 | 0.202 | 0.366 |  | < 1e-05 | 289000 | < 1e-05 | 104000 | mouse 1C5F12E9 (antibody, V domains shown, also called mouse anti-TSLP 1C5F12E9 antibody) VH: QVQLQQPGTELVKPGASVKMSCKASGYTFTTYWMHWVKQRPGQGLEWIGVIDPSDSDTTYNQKFKGKATLTVDTSSSTAYMQLSSLTSEDSAVYYCTRSLDGYYDYWGQGTTLTVSS VL: DIQMTQSPASLSASVGETVTITCRPTENIYSYLAWYQQKQGKSPHLLVYFARTLAEGVPSRFSGSGSGTQFSLKINSLQPEDFGIYYCQHHYGTPWTFGGGTKLEIK | EC50 [19]: 0.36 nM; IC50 [20]: 0.262 nM; EC50 [14]: 0.101 nM; Kd [15]: < 0.11 nM; koff [15]: < 1e-05 s⁻¹; kon [15]: 91100 M⁻¹ s⁻¹; IC50 [21]: 0.15 nM; IC50 [22]: 0.514 nM; IC50 [23]: 0.625 nM; EC50 [24]: 0.16 nM; IC50 [25]: 0.694 nM; EC50 [16]: 0.146 nM; EC50 [26]: 0.407 nM; IC50 [17]: 0.391 nM; Kd [27]: 0.226 nM; koff [27]: 0.000135 s⁻¹; kon [27]: 600000 M⁻¹ s⁻¹; IC50 [28]: 1.63 nM

Further lines, the binder ahead of its results:

Binder | Kd [1] [nM] | Kd [2] [nM] | EC50 [3] [nM] | IC50 [4] [nM] | IC50 [5] [nM] | IC50 [6] [nM] | EC50 [7] [nM] | IC50 [8] [nM] | EC50 [9] [nM] | IC50 [10] [nM] | IC50 [11] [nM] | koff [1] [s⁻¹] | kon [1] [M⁻¹ s⁻¹] | koff [2] [s⁻¹] | kon [2] [M⁻¹ s⁻¹] | other results
hu1C5F12E9-V8 (IgG4) (antibody, also called huC5F12E9-V8) heavy: not shown light: DIQMTQSPSSLSASVGDRVTITCRPTENIYSYLAWYQQKPGKAPKLLIYFARTLAEGVPSRFSGSGSGTDFTLTISSLQPEDFATYYCQHHYGTPWTFGGGTKVEIKRTVAAPSVFIFPPSDEQLKSGTASVVCLLNNFYPREAKVQWKVDNALQSGNSQESVTEQDSKDSTYSLSSTLTLSKADYEKHKVYACEVTHQGLSSPVTKSFNRGEC | < 0.0328 | < 0.0598 | 0.173 | ~1.1 | 0.145 | 1.06 | 0.124 | 2.38 | 0.17 | 0.381 |  |  |  |  |  | 
hu1C5F12E9-V8 (IgG1) (antibody, Humanized, human IgG1/kappa) heavy: not shown light: DIQMTQSPSSLSASVGDRVTITCRPTENIYSYLAWYQQKPGKAPKLLIYFARTLAEGVPSRFSGSGSGTDFTLTISSLQPEDFATYYCQHHYGTPWTFGGGTKVEIKRTVAAPSVFIFPPSDEQLKSGTASVVCLLNNFYPREAKVQWKVDNALQSGNSQESVTEQDSKDSTYSLSSTLTLSKADYEKHKVYACEVTHQGLSSPVTKSFNRGEC |  |  |  | ~1.12 |  | 0.78 | 0.116 |  |  |  | 0.707 |  |  |  |  | 
Mouse D1D8H9F7 (antibody, V domains shown, Mouse hybridoma mAb) VH: QVQLQQSGADLVRPGSSVKISCKTSGFAFSSYYMNWVKQRPGQGLEWIGQIYPGDGETNYNGKFKDKATLTADKSSSTVYMQLSSLTSEDSAVYFCARAGYSDYVYAMDYWGQGTSVTVSS VL: EIVLTQSPALMAASPGEKVTIICSVSSSITSSNLHWYQQKSETSPKPWIYGTSNLASGVPVRFSGSGSGTSYSLTISSMEAEDAATYYCQQWSSFPLTFGSGTKLEIK |  |  |  |  |  |  |  |  |  |  |  |  |  |  |  | binding result [14]: no binding (tested: about 67 nM); Kd [15]: 0.18 nM; koff [15]: 3.09e-05 s⁻¹; kon [15]: 172000 M⁻¹ s⁻¹; EC50 [16]: 0.126 nM; IC50 [17]: 0.5 nM; IC50 [18]: 1.83 nM
Chimeric 1C5F12E9 (antibody, human IgG1, kappa, V domains shown, Human IgG1/kappa chimera expressed in 293F cells; also called chimeric 1C5F12E9 antibody) VH: QVQLQQPGTELVKPGASVKMSCKASGYTFTTYWMHWVKQRPGQGLEWIGVIDPSDSDTTYNQKFKGKATLTVDTSSSTAYMQLSSLTSEDSAVYYCTRSLDGYYDYWGQGTTLTVSS VL: DIQMTQSPASLSASVGETVTITCRPTENIYSYLAWYQQKQGKSPHLLVYFARTLAEGVPSRFSGSGSGTQFSLKINSLQPEDFGIYYCQHHYGTPWTFGGGTKLEIKR | < 0.0261 | < 0.0517 | 0.161 |  | 0.1 |  |  | ~3.12 | 0.0918 | 0.291 |  | < 1e-05 | 383000 | < 1e-05 | 193000 | EC50 [19]: 0.448 nM; IC50 [22]: 0.627 nM; Kd [13]: 0.914 nM; koff [13]: 6.36e-05 s⁻¹; kon [13]: 69600 M⁻¹ s⁻¹; Kd [27]: 0.222 nM; koff [27]: 0.000159 s⁻¹; kon [27]: 715000 M⁻¹ s⁻¹

— patent US20220289833A1 (BIOSION, published 2022)
